Assay results published in patent US20250215104A1 (WALDEN BIOSCIENCES, published 2025).

T1: mouse cell surface uPAR (muPAR) (mouse, UniProt P35456 24-298)
T1 construct: whole, on cells; also called mouse uPAR
T1 sequence (looked up): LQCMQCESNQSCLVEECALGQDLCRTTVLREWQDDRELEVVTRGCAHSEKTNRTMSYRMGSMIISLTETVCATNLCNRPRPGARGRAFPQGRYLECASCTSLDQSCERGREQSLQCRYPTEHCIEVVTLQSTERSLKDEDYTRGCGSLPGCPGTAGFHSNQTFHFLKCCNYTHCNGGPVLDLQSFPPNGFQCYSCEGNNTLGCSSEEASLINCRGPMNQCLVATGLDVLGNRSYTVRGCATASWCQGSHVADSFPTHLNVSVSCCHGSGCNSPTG


Columns and labels:
cynomolgus suPAR = biological target: T2, cynomolgus suPAR (cynomolgus, UniProt Q9GK78 23-303, limits assumed); assay: BLI (Octet Red 96E), antibody immobilized
T2 construct: also called Cynomolgus suPAR isoform protein; cynomolgus uPAR
T2 sequence (Q9GK78 23-303 limits assumed): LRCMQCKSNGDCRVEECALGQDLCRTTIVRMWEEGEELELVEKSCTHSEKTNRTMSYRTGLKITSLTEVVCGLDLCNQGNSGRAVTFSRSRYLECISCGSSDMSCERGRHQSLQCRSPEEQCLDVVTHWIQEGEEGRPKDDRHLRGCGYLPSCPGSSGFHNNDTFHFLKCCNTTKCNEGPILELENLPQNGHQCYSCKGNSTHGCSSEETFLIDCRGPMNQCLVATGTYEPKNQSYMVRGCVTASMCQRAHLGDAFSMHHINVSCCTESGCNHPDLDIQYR
Text: Recombinantly expressed proteins for hsuPAR isoform 1-D2D3 fragment and hsuPAR-3 isoforms were custom generated in HEK or CHO cells and purified by Genscript from the known amino-acid sequence of hsuPAR-1 and hsuPAR-3 respectively. Cynomolgus suPAR isoform protein was commercially obtained from Creative Biomart.

[1] = biological target: T3, human suPAR (hsuPAR) recombinant protein (human, UniProt Q03405 23-303); assay: BLI (Octet Red96E), hsuPAR immobilized on streptavidin sensor, WAb0014 as analyte
T3 construct: it is written here as the same molecule; also called recombinant hsuPAR
T3 sequence (Q03405 23-303): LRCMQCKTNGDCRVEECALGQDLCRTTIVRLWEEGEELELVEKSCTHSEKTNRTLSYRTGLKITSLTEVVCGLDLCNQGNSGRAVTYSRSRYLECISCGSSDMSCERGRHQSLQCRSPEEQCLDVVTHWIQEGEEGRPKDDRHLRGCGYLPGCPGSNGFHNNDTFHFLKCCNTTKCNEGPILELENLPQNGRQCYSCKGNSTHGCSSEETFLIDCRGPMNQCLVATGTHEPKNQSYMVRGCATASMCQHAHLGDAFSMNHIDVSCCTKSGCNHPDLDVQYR
Method: (§1) Analyte global association (kₐ) and disassociation […] rates were calculated using in-built functions to determine binding affinity (KD)

[2] = biological target: T3, human suPAR (hsuPAR) recombinant protein; assay: BLI (Octet Red96E), WAb0014 immobilized on AHC sensor, hsuPAR as analyte
Method: as §1

[3] = biological target: T4, human neonatal FcRn receptor (hFcRn), biotinylated (human, UniProt P55899 24-297, biotinylated (site not stated)); assay: BLI (Octet Red96E), biotinylated hFcRn on SA sensor, WAb0014 as analyte, acidic conditions (pH 6)
T4 construct: also called FcRn receptors; neonatal FcRn receptors
T4 sequence (P55899 24-297 limits assumed, form in doubt): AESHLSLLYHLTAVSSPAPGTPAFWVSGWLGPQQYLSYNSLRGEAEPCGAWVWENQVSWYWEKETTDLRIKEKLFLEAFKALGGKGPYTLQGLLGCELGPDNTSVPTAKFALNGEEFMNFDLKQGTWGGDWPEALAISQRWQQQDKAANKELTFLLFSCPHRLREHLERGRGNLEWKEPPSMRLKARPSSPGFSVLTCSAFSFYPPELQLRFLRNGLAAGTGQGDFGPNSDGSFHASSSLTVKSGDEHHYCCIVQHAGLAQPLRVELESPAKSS
Method: Biotinylated hFcRn protein was sourced from Acro Biosystems and immobilized on a SA biosensor. […] Binding affinity (KD, nM) was calculated from the response rate constants as described above.

[4] = biological target: T1, mouse cell surface uPAR (muPAR); assay: flow cytometry on undifferentiated mouse podocytes, FITC secondary antibody
Method: Gene expression of mouse uPAR in undifferentiated mouse podocyte cells was undertaken using commercial gene specific qPCR probes for mouse and human uPAR and normalized to 18S housekeeping gene expression using manufacturers RT-qPCR protocol (Thermofisher). Separately, mouse podocytes were incubated with 100 μg/mL concentration of anti-hsuPAR and Proteintech positive control anti-mouse uPAR antibodies at 4° C. for 1 hr. After 2 cycles of wash to remove any unbound antibody, cells were incubated with 10 μg/mL of a goat-anti-human-FITC or goat-anti-mouse-FITC or goat-anti-rabbit-FITC conjugated secondary antibody for 1 hr at 4° C. After washing any unbound secondary antibody, cell suspensions for each sample was gated for single cells and population mean fluorescence intensity was recorded and analyzed on a Luminex Flowsight flow cytometer. Mean fluorescence intensity for test samples was plotted in GraphPad Prism software and compared to positive control sample data.

[5] = biological target: T5, cell surface human uPAR (huPAR) (human, UniProt Q03405 23-305); assay: flow cytometry on human podocytes, FITC secondary antibody, MFI against concentration
T5 construct: whole, on cells; also called cell surface huPAR; cell surface uPAR
T5 sequence (Q03405 23-305): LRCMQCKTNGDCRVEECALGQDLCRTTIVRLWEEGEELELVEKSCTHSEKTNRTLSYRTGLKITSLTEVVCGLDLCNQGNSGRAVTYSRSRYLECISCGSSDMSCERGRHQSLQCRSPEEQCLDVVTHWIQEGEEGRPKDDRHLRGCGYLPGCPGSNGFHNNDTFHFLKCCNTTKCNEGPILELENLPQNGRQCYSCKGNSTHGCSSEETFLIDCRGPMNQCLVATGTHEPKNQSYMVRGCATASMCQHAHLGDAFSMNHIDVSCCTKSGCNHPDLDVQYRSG
Method: After 2 cycles of wash to remove any unbound antibody, cells were incubated with 10 μg/mL of a goat-anti-human-FITC conjugated secondary antibody for 1 hr at 4° C.

[6] = biological target: T6, Fc-gammaR1 receptor recombinant protein, biotinylated (Homo sapiens (Human), UniProt P12314 16-292, Biotinylated for capture on the sensor; the site of biotin is not stated in the passages seen.); assay: BLI (Octet Red96E), biotinylated Fc-gammaR1 on streptavidin sensor, antibody as analyte
T6 construct: also called Fc-gammaR1 isoform
T6 sequence (P12314 16-292 limits assumed, form in doubt): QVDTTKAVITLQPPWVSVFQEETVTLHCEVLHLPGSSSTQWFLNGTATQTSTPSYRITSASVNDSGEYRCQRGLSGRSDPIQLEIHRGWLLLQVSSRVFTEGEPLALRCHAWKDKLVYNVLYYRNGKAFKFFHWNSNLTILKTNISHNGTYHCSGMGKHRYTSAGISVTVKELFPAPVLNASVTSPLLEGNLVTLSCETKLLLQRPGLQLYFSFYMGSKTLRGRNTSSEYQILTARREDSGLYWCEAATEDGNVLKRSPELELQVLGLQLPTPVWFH
Method: Antibody induced immune response is known to be mediated by interaction with Fc-gamma receptors. Immunologic response potential of WAL0921-ΔK was assessed biophysically on an Octet Red96E platform by measuring the binding affinity to Fc-gammaR1, high affinity Fc-gammaR2a and high affinity Fc-gammaR3a receptor recombinant proteins.
Biotinylated Fc-gamma proteins were procured from Acro Biosystems and immobilized on a streptavidin biosensor. Increasing concentrations of analyte WAL0921-ΔK were then applied, and responses measured. Binding affinity (KD, nM) was calculated from the response rate constants as described above.

Row | Kd (cynomolgus suPAR) [nM] | Kd [1] [nM] | Kd [2] [nM] | Kd [3] [nM] | binding result [4] | Kd [5] [nM] | Kd [6] [nM] | Binder
1 | 10.5 | < 0.1 | 0.69 to 2 | 0.025 | no binding (tested: 100 µg/mL) | 1 to 3 |  | WAb0014 (antibody, human IgG1, human kappa; also called initial anti-suPAR antibody; original candidate; copies: 2 + 2) heavy: not shown light: DIQMTQSPSSLSASVGDRVTITCSARQSVSYMYWYQQKPGKAPKLLIYRTSNLASGVPSRFSGSGSGTDFTLTISSLQPEDFATYYCQQYHSYPPTFGGGTKVEIKRTVAAPSVFIFPPSDEQLKSGTASVVCLLNNFYPREAKVQWKVDNALQSGNSQESVTEQDSKDSTYSLSSTLTLSKADYEKHKVYACEVTHQGLSSPVTKSFNRGEC
2 |  |  |  |  |  |  | 1750 | WAL0921-ΔK (antibody, Same as WAL0921 but without the C-terminal lysine of the heavy chain (K448 of the whole heavy chain); also called WAL0921 without K448) heavy: not shown light: DIQMTQSPSSLSASVGDRVTITCSARQSVSYMYWYQQKPGKAPKLLIYRTSNLASGVPSRFSGSGSGTDFTLTISSLQPEDFATYYCQQYHSYPPTFGGGTKVEIKRTVAAPSVFIFPPSDEQLKSGTASVVCLLNNFYPREAKVQWKVDNALQSGNSQESVTEQDSKDSTYSLSSTLTLSKADYEKHKVYACEVTHQGLSSPVTKSFNRGEC
